Experimental data published in patent publication US20070148185A1.

How the values were obtained:
[1] = target: heparan sulfate proteoglycans (HSPG) expressed on the surface of HepG2 human liver cells (human); assay: 100 nM protein on HepG2 cells pretreated with Heparinase I 1.25 U/ml, against non-treated cells
[2] = target: heparan sulfate proteoglycans (HSPG) expressed on the surface of HepG2 human liver cells (human); assay: 100 nM protein on HepG2 cells pretreated with Heparinase I 2.50 U/ml, against non-treated cells
[3] = target: heparan sulfate proteoglycans (HSPG) expressed on the surface of HepG2 human liver cells (human); assay: 100 nM protein on HepG2 cells pretreated with Heparinase I 5.00 U/ml, against non-treated cells
[4] = target: heparan sulfate proteoglycans (HSPG) expressed on the surface of HepG2 human liver cells (human); assay: cell-based or functional assay
[5] = target: heparan sulfate proteoglycans (HSPG) expressed on the surface of HepG2 human liver cells (human); assay: HepG2 cell binding assay with soluble heparin as competitive inhibitor
[6] = target: heparan sulfate proteoglycans (HSPG) expressed on the surface of HepG2 human liver cells (human); assay: binding of His-tagged protein to fixed HepG2 cells, anti-polyhistidine detection

Row | Molecule | Inhibition of Binding (%) [1] [%] | Inhibition of Binding (%) [2] [%] | Inhibition of Binding (%) [3] [%] | % Inhibition of invasion of HepG2 cells by P. falciparum sporozoites, FRAP at 10 µg/ml [4] [%] | % Inhibition of invasion of HepG2 cells by P. falciparum sporozoites, FRAP at 20 µg/ml [4] [%] | reduction of binding activity in the presence of free heparin [5] [%] | % Inhibition of invasion of HepG2 cells by P. falciparum sporozoites, FRAP2 at 10 µg/ml [4] [%] | % Inhibition of invasion of HepG2 cells by P. falciparum sporozoites, FRAP2 at 20 µg/ml [4] [%] | loss of binding activity in comparison to the full length protein [6] [%]
1 | recombinant Circumsporozoite (CS) protein with a polyhistidine tag at the carboxyl terminus | 48.1 | 57.7 | 59.1 | – | – | – | – | – | –
2 | Plasmodium falciparum Fasciclin Related Adhesive Protein (FRAP), recombinant full length protein (amino acids 1-205) with C-terminal polyhistidine tag (protein) MKNRFYYNLIIKRLYTRSGGLRKPQKVTNDPESINRKVYWCFEHKPVKRTIINLIYSHNELKIFSNLLNHPTVGSSLIHELSLDGPYTAFFPSNEAMQLINIESFNKLYNDENKLSEFVLNHVTKEYWLYRDLYGSSYQPWLMYNEKREAPEKLRNLLNNDLIVKIEGEFKHCNHSIYLNGSKIIRPNMKCHNGVVHIVDKPIIF | 39.4 | 42.1 | 47.8 | 80.9 | 89.5 | 55 | – | – | –
3 | FRAP2, truncated P. falciparum FRAP containing amino acids 1-87, with C-terminal polyhistidine tag (protein) MKNRFYYNLIIKRLYTRSGGLRKPQKVTNDPESINRKVYWCFEHKPVKRTIINLIYSHNELKIFSNLLNHPTVGSSLIHELSLDGPY | 42.3 | 41.4 | 49.4 | – | – | 60 | 88.1 | 92.4 | 50
